Laboratory results published in paper PMC8429771.

What was measured:
[1] = target: Native bovine (β, γ)-actin, P60712;P63258; assay: TIRFM (KD calculated from koff and kon)
[2] = target: Native bovine (β, γ)-actin, P60712;P63258; assay: single molecule TIRFM assay (linear fit of kobs against CP concentration); settings: Cy5-UTRN261N (10 nM), profilin-actin (2 μM), TMR-CP
[3] = target: Native bovine (β, γ)-actin, P60712;P63258; assay: TIRFM single-filament re-growth assay after CP washout (mono-exponential fit); settings: Cy5-UTRN261N (10 nM), profilin-actin (2 μM), myotrophin/V1 (20 nM) after CP washout
[4] = target: Actin (Homo sapiens) (UniProt P60709); settings: cited from earlier work

| Kd [1] [nM] | kon [2] [M⁻¹ s⁻¹] | koff [3] [s^-1·10^-3] | Substance | Kd [4] [nM] |
| --- | --- | --- | --- | --- |
| 0.3 | 8.68e+06 | 2.6 | Murine heterodimeric capping protein (α1, β2), wildtype (from UniProt P47753;P47757-2) αY277V | – |
| – | – | – | Profilin (from UniProt P07737) | 19 |
